Article PMC10613254

What follows are substances tested against bovine brain Arp2/3 complex (bovine) (UniProt P61157) (assay: ITC; cortactin constructs titrated into ATP-Arp2/3 complex; temperature and concentrations indicated only in Fig. 4d).

Cort_(18-76), sequence (Q60598 18-76): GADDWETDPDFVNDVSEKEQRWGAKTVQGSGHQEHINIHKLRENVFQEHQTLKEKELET
Cort_(1-76), cortactin N-terminal acidic domain (NTA, residues 1-76), sequence (Q60598 1-76): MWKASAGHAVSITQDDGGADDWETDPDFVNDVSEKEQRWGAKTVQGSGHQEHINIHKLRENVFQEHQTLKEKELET
Cort_(1-33), sequence (Q60598 1-33): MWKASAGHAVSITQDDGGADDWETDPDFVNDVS

Stoichiometry N, 1:
Cort_(1-33) (from UniProt Q60598 1-33) (domain or fragment)
Cort_(1-76), cortactin N-terminal acidic domain (NTA, residues 1-76) (from UniProt Q60598 1-76) (domain or fragment)
Cort_(18-76) (from UniProt Q60598 18-76) (domain or fragment)
